Data on two molecules can be found in patent publication US5668265, “Bi-directional oligonucleotides that bind thrombin” (Becton Dickinson and Company).

This data set deals with alpha-thrombin (Homo sapiens, UniProt P00734;P00734 P00734:315-363,P00734:364-622). Kind of data set: SPR; apparent; solution competition vs immobilized consensus aptamer; same buffer, 25 C. (Surface plasmon resonance follows binding to a sensor surface in real time, without labels.)

For the molecule GGTTGGTT (ssDNA) [Compound 12 (single segment)], the Kd turned out to be 1500 nM.

As to GGTTGGTGTGGTTGG (structured_DNA) [Compound 10 (consensus thrombin aptamer)], the Kd came out at 6 nM.
